Measured values: patent US20130012432A1 (Novo Nordisk, published 2013)
Positions of bridges follow the written chain, without caps; N, C: chain ends. Non-standard residues stand in square brackets, D forms with d. Groups on a side chain read outwards from the residue. Primed or numbered codes have the meaning given here. *: point of attachment. X2 = (2-(2-(16-(tetrazol-5-yl)hexadecanoylamino)ethoxy)ethoxy)acetyl, O=C(CCCCCCCCCCCCCCCc1nn[nH]n1)NCCOCCOCC(=O)*; X5 = NH(2-(2-(2-(17-carboxyheptadecanoylamino)ethoxy)ethoxy)ethyl), O=C(O)CCCCCCCCCCCCCCCCC(=O)NCCOCCOCCN*; biscarboxymethyl = Lys(biscarboxymethyl) = Nepsilon-bis(carboxymethyl)-L-lysine; bis(carboxymethyl) = Lys(biscarboxymethyl) = N6-bis(carboxymethyl)-L-lysine; Palmitoyl(16-(5-tetrazolyl)) = O=C(CCCCCCCCCCCCCCCc1nnn[nH]1)*; biscarboxymethyl(3) = Nepsilon-bis(carboxymethyl) on Lys; Lys(CH2CO2H)2 = N[C@@H](CCCCN(CC(=O)O)CC(=O)O)C(=O)O; C17 diacid = O=C(O)CCCCCCCCCCCCCCCC(=O)*; C16 diacid = O=C(O)CCCCCCCCCCCCCCC(=O)*; C14 diacid = O=C(O)CCCCCCCCCCCCC(=O)*; Hyp = O=C(O)[C@@H]1C[C@@H](O)CN1; NTA = O=C(O)CN(CC(=O)O)CC(=O)*; hCys = N[C@@H](CCS)C(=O)O; Orn = NCCC[C@H](N)C(=O)O; Dab = NCC[C@H](N)C(=O)O; Dap = NC[C@H](N)C(=O)O; AEEA = NCCOCCOCC(=O)O

biological target: T1, human MC4 receptor (human, UniProt P32245 1-332); experiment: 125I-NDP-α-MSH displacement, BHK-human MC4 membranes (Assay V);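 also: Filter-retained radioactivity read by gamma counting, with affinity obtained through non-linear regression fitting of the binding curves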
T1 construct: whole, on cells; Assayed as membranes of BHK cells stably expressing the receptor; also called melanocortin receptor subtype 4; melanocortin receptor 4
T1 sequence (P32245 whole entry): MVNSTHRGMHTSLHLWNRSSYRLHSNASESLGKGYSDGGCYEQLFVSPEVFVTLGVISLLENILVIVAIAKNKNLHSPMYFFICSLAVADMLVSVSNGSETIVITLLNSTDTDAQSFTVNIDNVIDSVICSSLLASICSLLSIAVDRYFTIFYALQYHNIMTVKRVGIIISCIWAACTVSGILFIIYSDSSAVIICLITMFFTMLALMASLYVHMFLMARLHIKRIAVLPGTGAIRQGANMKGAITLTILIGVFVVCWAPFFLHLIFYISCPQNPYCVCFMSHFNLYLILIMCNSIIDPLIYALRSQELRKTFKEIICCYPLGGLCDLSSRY
Description: The membranes were prepared from frozen or fresh cells that were homogenized in 20 mM HEPES pH 7.1, 5 mM MgCl₂ and 1 mg/ml bacitracin and centrifuged at 15000 rpm at 4° C., 10 min in a Sorvall RC 5B plus, SS-34 rotor. The supernatant was discarded, and the pellets were re-suspended in buffer, homogenized and centrifuged two more times. The final pellets were resuspended in the buffer mentioned above, and the protein concentration was measured and adjusted with buffer to 14 to 17 mg/ml and the membrane preparation were kept at −80° C. until assay. The assay was run directly on a dilution of this cell membrane suspension, without any further preparation. The BHK cell membranes are kept at −80° C. until assay, and the assay is run directly on a dilution of this cell membrane suspension, without further preparation. The suspension is diluted to give maximally 10% specific binding, i.e. to approx. 50-100 fold dilution. […] Test compounds were dissolved in DMSO and diluted in binding buffer. Radiolabelled ligand and membranes were diluted in binding buffer. The incubation was stopped by dilution with 2×100 μl ice-cold 0.9% NaCl. The radioactivity retained on the filters was counted using a Cobra II auto gamma counter.
The data were analysed by non-linear regression analysis of binding curves, using the Windows™ program GraphPad™ Prism (GraphPad Software, USA).

| Binder | Ki |
| --- | --- |
| Ac-[hCys]H[dF]RWCPPKEK(bis(carboxymethyl))K([AEEA-C16 diacid])-NH2 (disulfide 1-6) | 17 nM |
| Ac-[hCys]H[dF]RWCPPSEK(bis(carboxymethyl))K([AEEA-C16 diacid])-NH2 (disulfide 1-6) | 70 nM |
| Ac-[hCys]H[dF]RWCPPKDK(NTA)K([AEEA-Palmitoyl(16-(5-tetrazolyl))])-NH2 (disulfide 1-6; SMILES CC(=O)N[C@H]1CCSSC[C@@H](C(=O)N2CCC[C@H]2C(=O)N2CCC[C@H]2C(=O)N[C@@H](CCCCN)C(=O)N[C@@H](CC(=O)O)C(=O)N[C@@H](CCCCNC(=O)CN(CC(=O)O)CC(=O)O)C(=O)N[C@@H](CCCCNC(=O)COCCOCCNC(=O)CCCCCCCCCCCCCCCc2nnn[nH]2)C(N)=O)NC(=O)[C@H](Cc2c[nH]c3ccccc23)NC(=O)[C@H](CCCNC(=N)N)NC(=O)[C@@H](Cc2ccccc2)NC(=O)[C@H](Cc2c[nH]cn2)NC1=O) | 0.4 nM |
| Ac-EH[dF]RW[Dap]PPRDK(biscarboxymethyl(3))K([AEEA-Palmitoyl(16-(5-tetrazolyl))])-NH2 (lactam 1-6) | 13 nM |
| Ac-DH[dF]RW[Dap]PPRDK(biscarboxymethyl(3))K([AEEA-Palmitoyl(16-(5-tetrazolyl))])-NH2 (lactam 1-6) | 71.5 nM |
| Ac-[Orn]H[dF]RWEPSSSK(bis(carboxymethyl))SSK([AEEA-C17 diacid])-NH2 (lactam 1-6) | 6.35 nM |
| Ac-[hCys]Q[dF]RWCPPKD[Dap](NTA)K([AEEA-Palmitoyl(16-(5-tetrazolyl))])-NH2 (disulfide 1-6; SMILES CC(=O)N[C@H]1CCSSC[C@@H](C(=O)N2CCC[C@H]2C(=O)N2CCC[C@H]2C(=O)N[C@@H](CCCCN)C(=O)N[C@@H](CC(=O)O)C(=O)N[C@@H](CNC(=O)CN(CC(=O)O)CC(=O)O)C(=O)N[C@@H](CCCCNC(=O)COCCOCCNC(=O)CCCCCCCCCCCCCCCc2nnn[nH]2)C(N)=O)NC(=O)[C@H](Cc2c[nH]c3ccccc23)NC(=O)[C@H](CCCNC(=N)N)NC(=O)[C@@H](Cc2ccccc2)NC(=O)[C@H](CCC(N)=O)NC1=O) | 1.06 nM |
| Ac-[hCys][Hyp][dF]RWCPPKD[Dap](NTA)K([AEEA-Palmitoyl(16-(5-tetrazolyl))])-NH2 (disulfide 1-6; SMILES CC(=O)N[C@H]1CCSSC[C@@H](C(=O)N2CCC[C@H]2C(=O)N2CCC[C@H]2C(=O)N[C@@H](CCCCN)C(=O)N[C@@H](CC(=O)O)C(=O)N[C@@H](CNC(=O)CN(CC(=O)O)CC(=O)O)C(=O)N[C@@H](CCCCNC(=O)COCCOCCNC(=O)CCCCCCCCCCCCCCCc2nnn[nH]2)C(N)=O)NC(=O)[C@H](Cc2c[nH]c3ccccc23)NC(=O)[C@H](CCCNC(=N)N)NC(=O)[C@@H](Cc2ccccc2)NC(=O)[C@@H]2C[C@@H](O)CN2C1=O) | 0.62 nM |
| Ac-[hCys]H[dF]RWCPPKD[Dap](NTA)K([AEEA-Palmitoyl(16-(5-tetrazolyl))])-OH (disulfide 1-6; SMILES CC(=O)N[C@H]1CCSSC[C@@H](C(=O)N2CCC[C@H]2C(=O)N2CCC[C@H]2C(=O)N[C@@H](CCCCN)C(=O)N[C@@H](CC(=O)O)C(=O)N[C@@H](CNC(=O)CN(CC(=O)O)CC(=O)O)C(=O)N[C@@H](CCCCNC(=O)COCCOCCNC(=O)CCCCCCCCCCCCCCCc2nnn[nH]2)C(=O)O)NC(=O)[C@H](Cc2c[nH]c3ccccc23)NC(=O)[C@H](CCCNC(=N)N)NC(=O)[C@@H](Cc2ccccc2)NC(=O)[C@H](Cc2c[nH]cn2)NC1=O) | 6.4 nM |
| Ac-KH[dF]RWDPPHEESSEK([AEEA-C17 diacid])-NH2 (lactam 1-6; SMILES CC(=O)N[C@H]1CCCCNC(=O)C[C@@H](C(=O)N2CCC[C@H]2C(=O)N2CCC[C@H]2C(=O)N[C@@H](Cc2c[nH]cn2)C(=O)N[C@@H](CCC(=O)O)C(=O)N[C@@H](CCC(=O)O)C(=O)N[C@@H](CO)C(=O)N[C@@H](CO)C(=O)N[C@@H](CCC(=O)O)C(=O)N[C@@H](CCCCNC(=O)COCCOCCNC(=O)CCCCCCCCCCCCCCCC(=O)O)C(N)=O)NC(=O)[C@H](Cc2c[nH]c3ccccc23)NC(=O)[C@H](CCCNC(=N)N)NC(=O)[C@@H](Cc2ccccc2)NC(=O)[C@H](Cc2c[nH]cn2)NC1=O) | 30 nM |
| Ac-CEH[dF]RWCPPKE[Lys(CH2CO2H)2]K([AEEA-Palmitoyl(16-(5-tetrazolyl))])-NH2 (disulfide 1-7; SMILES CC(=O)N[C@H]1CSSC[C@@H](C(=O)N2CCC[C@H]2C(=O)N2CCC[C@H]2C(=O)N[C@@H](CCCCN)C(=O)N[C@@H](CCC(=O)O)C(=O)N[C@@H](CCCCN(CC(=O)O)CC(=O)O)C(=O)N[C@@H](CCCCNC(=O)COCCOCCNC(=O)CCCCCCCCCCCCCCCc2nnn[nH]2)C(N)=O)NC(=O)[C@H](Cc2c[nH]c3ccccc23)NC(=O)[C@H](CCCNC(=N)N)NC(=O)[C@@H](Cc2ccccc2)NC(=O)[C@H](Cc2c[nH]cn2)NC(=O)[C@H](CCC(=O)O)NC1=O) | 15 nM |
| Ac-KH[dF]RWDPPHE[Lys(CH2CO2H)2]K([AEEA-C17 diacid])-NH2 (lactam 1-6; SMILES CC(=O)N[C@H]1CCCCNC(=O)C[C@@H](C(=O)N2CCC[C@H]2C(=O)N2CCC[C@H]2C(=O)N[C@@H](Cc2c[nH]cn2)C(=O)N[C@@H](CCC(=O)O)C(=O)N[C@@H](CCCCN(CC(=O)O)CC(=O)O)C(=O)N[C@@H](CCCCNC(=O)COCCOCCNC(=O)CCCCCCCCCCCCCCCC(=O)O)C(N)=O)NC(=O)[C@H](Cc2c[nH]c3ccccc23)NC(=O)[C@H](CCCNC(=N)N)NC(=O)[C@@H](Cc2ccccc2)NC(=O)[C@H](Cc2c[nH]cn2)NC1=O) | 17 nM |
| Ac-[hCys]H[dF]RWCPPKD[Dap](NTA)K([AEEA-C14 diacid])-NH2 (disulfide 1-6; SMILES CC(=O)N[C@H]1CCSSC[C@@H](C(=O)N2CCC[C@H]2C(=O)N2CCC[C@H]2C(=O)N[C@@H](CCCCN)C(=O)N[C@@H](CC(=O)O)C(=O)N[C@@H](CNC(=O)CN(CC(=O)O)CC(=O)O)C(=O)N[C@@H](CCCCNC(=O)COCCOCCNC(=O)CCCCCCCCCCCCC(=O)O)C(N)=O)NC(=O)[C@H](Cc2c[nH]c3ccccc23)NC(=O)[C@H](CCCNC(=N)N)NC(=O)[C@@H](Cc2ccccc2)NC(=O)[C@H](Cc2c[nH]cn2)NC1=O) | 4.2 nM |
| Ac-KH[dF]RWDPSSS[Lys(CH2CO2H)2]SS-X5 (lactam 1-6; SMILES CC(=O)N[C@H]1CCCCNC(=O)C[C@@H](C(=O)N2CCC[C@H]2C(=O)N[C@@H](CO)C(=O)N[C@@H](CO)C(=O)N[C@@H](CO)C(=O)N[C@@H](CCCCN(CC(=O)O)CC(=O)O)C(=O)N[C@@H](CO)C(=O)N[C@@H](CO)C(=O)NCCOCCOCCNC(=O)CCCCCCCCCCCCCCCCC(=O)O)NC(=O)[C@H](Cc2c[nH]c3ccccc23)NC(=O)[C@H](CCCNC(=N)N)NC(=O)[C@@H](Cc2ccccc2)NC(=O)[C@H](Cc2c[nH]cn2)NC1=O) | 2.75 nM |
| Ac-[Dab]H[dF]RWDPPREK(biscarboxymethyl(3))K([AEEA-Palmitoyl(16-(5-tetrazolyl))])-NH2 (lactam 1-6) | 8.45 nM |
| Ac-[Dab]H[dF]RWEPPRDK(biscarboxymethyl(3))K([AEEA-Palmitoyl(16-(5-tetrazolyl))])-NH2 (lactam 1-6) | 107 nM |
| Ac-[Orn]H[dF]RWEPPHEK(bis(carboxymethyl))K([AEEA-C17 diacid])-NH2 (lactam 1-6) | 21.5 nM |
| Ac-[Orn]H[dF]RWDPPHEK(biscarboxymethyl)K(X2)-NH2 (lactam 1-6) | 1.43 nM |
| Ac-[Dab]H[dF]RWDPPHEK(biscarboxymethyl(3))K([AEEA-Palmitoyl(16-(5-tetrazolyl))])-NH2 (lactam 1-6) | 76 nM |
| Ac-CEH[dF]RWGCPPKE[Lys(CH2CO2H)2]K([AEEA-C16 diacid])-NH2 (disulfide 1-8; SMILES CC(=O)N[C@H]1CSSC[C@@H](C(=O)N2CCC[C@H]2C(=O)N2CCC[C@H]2C(=O)N[C@@H](CCCCN)C(=O)N[C@@H](CCC(=O)O)C(=O)N[C@@H](CCCCN(CC(=O)O)CC(=O)O)C(=O)N[C@@H](CCCCNC(=O)COCCOCCNC(=O)CCCCCCCCCCCCCCC(=O)O)C(N)=O)NC(=O)CNC(=O)[C@H](Cc2c[nH]c3ccccc23)NC(=O)[C@H](CCCNC(=N)N)NC(=O)[C@@H](Cc2ccccc2)NC(=O)[C@H](Cc2c[nH]cn2)NC(=O)[C@H](CCC(=O)O)NC1=O) | 55 nM |
